From patent publication US20200277373A1, “ANTI-TREM2 ANTIBODIES AND METHODS OF USE THEREOF” (Denali Therapeutics Inc., priority 2017, published 2020)

Assays:
[1] = target: T1, soluble TREM2 (sTREM2) (Homo sapiens, UniProt Q9NZC2); assay: Soluble TREM2 (TREM2 shedding) assay in HEK293 TREM2/DAP12 cells; format: cell-based; set-up: key to STREM2: NC = no change; −− = reduced sTREM2; ++ = increased sTREM2; conditions: for STREM2: change in sTREM2 levels
T1 construct: expressed in transfected cells
Procedure: HEK293 cells stably expressing human TREM2 and DAP12 were plated onto 96-well plates pre-coated with poly-D-lysine 4-16 hours prior to antibody treatment. Antibody supernatants or control antibodies were diluted into fresh complete media and added onto cells in triplicate. Cells were incubated with antibody containing media for 18 hours prior to removal of the cell supernatant for assay by TREM2 ELISA. Samples and standards were diluted 1:10 into blocking buffer (3% BSA/TBST) in the assay plate. Briefly, MSD small spot streptavidin plates were coated with biotinylated anti-hTREM2 polyclonal antibody (R&D Systems) overnight at 4° C. or 1 hour at room temperature. Plates were then blocked overnight at 4° C., or 1 hour at room temperature, with blocking buffer, 3% BSA/TBST. Plates were washed three times with TBST in a Biotek plate washer (used for all washes) prior to addition of diluent (blocking buffer) and denatured supernatants from cell culture. A TREM2-His protein diluted in 3% BSA/TBST was used as a standard for absolute quantification. Following 1 hour incubation at room temperature, plates were washed with TBST. The primary detection antibody, sulfo-tagged goat anti-human TREM2 (R&D Systems), diluted in 3% BSA/TBST was added and incubated for 1 hour at room temperature. After washing with TBST, MSD plates were developed using 2×MSD read buffer T, followed by detection using an MSD Sector plate reader. MSD values were converted to absolute quantities of sTREM2 by fitting a standard curve using Prism 7.0 software (Graphpad). Modulation of TREM2 shedding was represented as a ratio to cells cultured with no specific TREM2 antibody in the media.

[2] = target: T2, TREM2 (Homo sapiens, UniProt Q9NZC2); assay: TREM2 pSyk antagonist assay on human macrophages (antibody pre-incubation, then liposomes); format: cell-based; conditions: FIGS. 9C-9D, 30 nM antibody
T2 construct: macrophage cells that endogenously express TREM2; endogenous in cells; host or cells: primary human monocyte-derived macrophages from donor blood
T2 sequence (Q9NZC2 19-230): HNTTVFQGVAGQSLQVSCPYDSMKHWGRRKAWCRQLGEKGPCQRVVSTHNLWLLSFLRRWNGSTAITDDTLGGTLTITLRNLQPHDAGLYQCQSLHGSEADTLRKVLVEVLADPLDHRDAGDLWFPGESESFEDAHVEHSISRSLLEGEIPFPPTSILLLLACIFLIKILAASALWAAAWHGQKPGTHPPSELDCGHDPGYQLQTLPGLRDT
Procedure: (§1) Human macrophages were differentiated from donor blood using a human monocyte enrichment cocktail (Stem Cell Technologies) and culturing monocytes with human mCSF for five days in macrophage media (RPMI+10% Hyclone FBS+Glutamax+Pen/Strep+non-essential amino acids+sodium pyruvate). On the fifth day, the human macrophages were scraped from the flasks and were re-plated at 100,000 cells/well on a 96-well poly-D-lysine-coated plate in the macrophage media (without mCSF). The cells were incubated for 24 hours to adhere, then the media was removed.
Antibodies diluted in RPMI alone were immediately added to the cells, and allowed to incubate for 30 minutes at 37° C. The antibodies were then removed. Lipid vesicles comprised of 70% DOPC and 30% POPS (made according to the procedure for making vesicles described above) in HBSS were added to the cells and incubated […] at 37° C. The liposome/antibody solution was removed, and 35 μL lysis buffer (Cell Signaling Technologies, CST) was added using the liquid handler. The lysate was then incubated at 4° C. for 30 minutes, then either frozen at −80° C. or immediately carried forward to a pSyk AlphaLISA assay as described above.

[3] = target: T3, hTREM2 (Homo sapiens, UniProt Q9NZC2); assay: Octet binning (competition with R&D antibody on biotinylated TREM2-His); format: binding; conditions: epitope bin, 100 nM
T3 construct: The ecto domain (residues 19-172) of TREM2 (UniProtKB—Q9NZC2); secretion signal of mouse Ig kappa chain V-III (P01661 aa 1-20) (N); made in house; host or cells: Expi293F
T3 sequence (Q9NZC2 19-172): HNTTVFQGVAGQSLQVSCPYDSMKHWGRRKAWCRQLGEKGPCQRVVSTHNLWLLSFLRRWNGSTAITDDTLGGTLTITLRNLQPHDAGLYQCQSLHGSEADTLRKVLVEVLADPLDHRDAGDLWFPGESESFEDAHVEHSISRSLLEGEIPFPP
Procedure: Competition with R&D antibody was done by Octet Red using biotinylated human Trem2-His protein generated in house. Biotinylated human TREM2-His protein was captured on a streptavidin tip, and the tip was then incubated in either 100 nM of R&D Ab or buffer for 3 minutes, followed by incubation for 3 minutes in 100 nM of testing hybridoma. The difference of hybridoma binding curve with or without pre-binding to R&D antibody was analyzed to determine the epitope.

[4] = target: T4, TREM2 (Homo sapiens, UniProt Q9NZC2); assay: FACS binning on human TREM2-HEK cells (competition with R&D antibody); format: binding; conditions: epitope bin, 100 nM antibody
T4 construct: expressed in transfected cells
Procedure: HEK293 overexpressing human TREM2 (H6) were harvested by 0.05% trypsin and incubated at 37° C. incubator for 2 hours for surface TREM2 recovery. After incubation, cells were washed with 1×PBS and FACS buffer (PBS+0.5% BSA) with human Trustain FcX solution (Biolegend, Cat #422302) was added at a density of 10^6/mL. Cells were seeded at 100,000 cells per well in a 96-well round-bottom and incubated 20 minutes at room temperature. After incubation, anti-TREM2 antibodies (100 nM) were added to the cells and the cells were incubated for 45 minutes on ice. After incubation, rat anti-h/mTREM2-APC antibody (1:100, R&D, Cat # FAB17291A) was added to the cells, and the cells were incubated for 30 minutes on ice. After incubation, cells were washed with FACS buffer three times and resuspended in 10 μL FACS buffer, then analyzed by flow cytometry (BD FACSCanto II, San Jose, Calif.). 20,000 events were obtained for each sample. The ability to compete with R&D antibody was determined by MFI analysis compared to isotype or buffer control wells.
T4 sequence (O43914 22-113 partner, one chain of several): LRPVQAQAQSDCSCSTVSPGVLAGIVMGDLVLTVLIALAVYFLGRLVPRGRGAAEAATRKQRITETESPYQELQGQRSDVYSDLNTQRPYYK

[5] = target: T2, TREM2; assay: TREM2 PAM/pSyk assay on human macrophages; format: cell-based
Procedure: as §1
Antibodies pre-mixed with lipid vesicles comprised of 70% DOPC and 30% POPS (made according to the procedure for making vesicles described above) diluted in HBSS were immediately added to the cells, and allowed to incubate for 5 minutes at 37° C. The liposome/antibody solution was removed, and 35 μL lysis buffer (Cell Signaling Technologies, CST) was added using the liquid handler. The lysate was then incubated at 4° C. for 30 minutes, then either frozen at −80° C. or immediately carried forward to a pSyk AlphaLISA assay as described above. […] The results of the assay are shown in FIG. 9B and in Table 8 below.

T1 sequence (O43914 22-113 partner, one chain of several): as above

Row | Molecule | STREM2 [1] | liposome mediated pSyk signaling after antibody pre-incubation [2] | Bin by Octet [3] | Bin by FACS [4] | further results
1 | RS9.F10: anti-TREM2 antibody clone; likely VH SEQ ID NO:6, VL SEQ ID NO:7 (antibody, V domains shown) VH: QVQLQQPGAELVKPGASVKLSCKASGYTFTSYWMHWVKQSPGRGLEWIGRSDPTTGGTNYNEKFKTKATLTVDKPSSTAYMQLSSLTSDDSAVYYCVRTSGTGDYWGQGTSLTVSSAKTTAPSVYPLAPVCGGTTGSSVT VL: DVVMTQTPLSLPVSLGDQASISCRSSQSLVHNNGNTFLHWYLQKPGQSPKLLIYKVSNRFSGVPDRFSGSGSGTDFTLKISRVEAEDLGVYFCSQTTHVPPTFGGGTKLEIKRADAAPTVSIFPPSSEQLTSGGASVVCF | NC |  |  |  | 
2 | 26D2.D1: anti-TREM2 antibody clone; VH SEQ ID NO:16, VL SEQ ID NO:27 (antibody, V domains shown) VH: EVQLQQSGPELVKPGASVKMSCKASGYTFTSYVMHWVKQKPGQGLEWIGYINPYTDGTKYNEKFKGKATLTSDKSSSTAYMDLSSLTSEDSAVYYCARGEVRRYALDYWGQGTSVTVSS VL: DIQMTQSSSSFSVSLGDRVTITCKASEDIYNRLAWYQQKPGNAPRLLISGATSLETGVPSRFSGSGSGKDYTLSITSLQTEDVATYYCQQYWSTPWTFGGGTKLEIK | NC | blocked | 1-2 | 3 | 
3 | 42E8.H1: anti-TREM2 antibody clone; VH SEQ ID NO:20, VL SEQ ID NO:31 (antibody, V domains shown) VH: DVQLQESGPGLVKPSQSLSLTCTVTGYSITSDYAWNWIRQFPGNKLEWMGYINYSGRTIYNPSLKSRISITRDTSKNHFFLQLISVTTEDTATYYCARWNGNYGFAYWGQGTLVTVSA VL: DVVMTQNPLSLPVSLGDQASISCRSSQSLVHINGNTYLHWYLQKPGQSPKLLIYKVSNRFSGVPDRFSGSGSGTDFTLKISRVEAEDLGVYFCSQTTHALFTFGSGTKLEIK | −− |  | 1 | 1 | TREM2 shedding (in words) ([1]; FIG. 4, 18 hours): blocks TREM2 shedding
4 | 26E2.A3: anti-TREM2 antibody clone; VH SEQ ID NO:17, VL SEQ ID NO:28 (antibody, V domains shown) VH: QVHLQQSGSELRSPGSSVKLSCKDFDSEVFPISYMSWIRQKPGHGFEWIGDILPSIGGRIYGVKFEDRATLDADTVSNTAYLELNSLTSEDSAIYYCARKDYGSLAYWGQGTLVTVSA VL: DVVMTQTPLSLPVSLGDQASISCRSSQSLVHINGNTYLQWFLQKPGQSPKLLIYKVSNRFSGVPDRFSGSGSGTAFTLKISRVEAEDLGVYFCSQSTHVPYTFGGGTKLEIK |  | enhanced |  |  | 
5 | 49H11.B1: anti-TREM2 antibody clone; VH SEQ ID NO:21, VL SEQ ID NO:32 (antibody, V domains shown) VH: DVQLQESGPGLVKPSQSLSLTCTVTGYSITSDYAWNWIRQFPGNRLEWMGYISFSGSTSYNPSLKSRISITRDTSKNQFFLQLNSVTTEDTATYYCARWNGNYGFAYWGQGTLVTVSA VL: DVVMTQTPLSLPVSLGDQASISCRSSQSLVHINGNTYLHWYLQKPGQSPKLLIYKVSNRFSGVPDRFSGSGSGTDFTLKISRVEAEDLGVYFCSQSTHVTFTFGSGTKLEIK |  |  | 1 | 1 | 
6 | 7B10.A2: anti-TREM2 antibody clone; VH SEQ ID NO:306, VL SEQ ID NO:310 (antibody, V domains shown) VH: EVQLQQSGPELVKPGASVKMSCKASGYTFTDYNMHWVKQSHGKSLEWIGYINPNNGGTTYNQKFKGKATLTVNKSSSTAYMELRSLTSEDSAVYYCATYNNHYFDSWGQGTTLTVSS VL: DIQMTQTTSSLSASLGDRVTISCSASQGISNYLNWYQQKPDGTVKLLIYYTSNLHSGVPSRFSGSGSGTDYSLTISNLEPEDIATYYCQQYSNLPYTFGGGTKLEIK |  |  |  |  | effect on lipid ligand activation of TREM2 (in words) ([5]; FIG. 9B, human macrophages): synergistic with lipid TREM2 activators; Slope + Liposome ([5]; pSyk, 10 nM antibody with 0, EC20, EC50, EC80 PS/PC liposomes, liposome-alone signal subtracted): 5,370
